# Patent publication US20140056903A1 (Regeneron, published 2014)
# T1: human GFRα3 on HEK293/hGFRα3/hRET/SRE-luc cells (human, UniProt O60609 32-382)
# T1 sequence: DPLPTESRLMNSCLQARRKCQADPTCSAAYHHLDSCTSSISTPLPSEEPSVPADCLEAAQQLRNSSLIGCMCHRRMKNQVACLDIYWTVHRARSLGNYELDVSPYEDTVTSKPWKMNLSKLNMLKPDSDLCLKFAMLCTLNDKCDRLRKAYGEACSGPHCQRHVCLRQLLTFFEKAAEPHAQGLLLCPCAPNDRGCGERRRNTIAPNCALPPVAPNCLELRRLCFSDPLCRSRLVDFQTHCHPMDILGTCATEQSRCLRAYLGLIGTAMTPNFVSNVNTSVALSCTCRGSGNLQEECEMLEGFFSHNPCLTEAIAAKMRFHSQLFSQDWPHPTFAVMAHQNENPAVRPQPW
# B1: H4H2352S (antibody, human IgG4, V domains shown)
# VH: EVQLVQSGAEVKKPGASVKVSCKASGYTFTNYGITWVRQAPGQGLEWMGWISAYNGNTGYAQKFQGRVTMTTDTSTSTAYMELRSLRSDDTAVYYCAREDYDFWRAFDIWGQGTMVTVSS
# VL: EIVLTQSPGTLSLSPGERATLSCRASQSVSSTYLAWLQQKPGQAPRLLIYGASSRATGIPDRFSGSGSGTDFTLTINRLEPEDFAVYYCQQYAYSPYTFGQGTKLEIK
# notes: human IgG4 Fc (H4H); also called H4H2352S-1
# Assays:
# [1] = target: T1, human GFRα3 on …; assay: cell-based or functional assay
# [2] = target: T2, human GFRα3 expressed with a C-terminal myc-myc-hexahistidine tag (human, UniProt O60609 32-374, biotinylated (sites not given) in ELISA format 2 and in the Octet cross-competition; not in SPR); assay: Octet cross-competition; biotin-hGFRα3-mmH pre-saturated with first antibody H4H2292S
# T2 construct: also called hGFRα3-mmh; hGFRα3-mmH
# Description: (§1) A cross-competition assay was conducted to assess the ability of select antibodies to compete with one another for binding to human GFRα3 using an Octet RED384 biosensor (Fortebio Inc.). The entire experiment was performed at 25° C. with the flow rate of 1000 rpm in Octet HBST buffer (0.01 M HEPES pH7.4, 0.15M NaCl, 3 mM EDTA, 0.05% v/v Surfactant P20, 0.1 mg/mL BSA). To assess whether 2 antibodies were able to compete with one another for binding to their respective epitopes on biotinylated recombinant human GFRα3 expressed with a C-terminal myc-myc-hexahistidine tag (biotin-hGFRα3-mmH; SEQ ID:370), around ˜1.2 nm of biotin-hGFRα3-mmH was first captured onto streptavidin-coated Octet sensor tips (Fortebio Inc, #18-5019) by submerging the tips for 1 minute into a 10 μg/mL solution of biotin-hGFRα3-mmH. The antigen coated sensor tips were then placed into wells containing 25 μg/mL solution of a first anti-GFRα3 monoclonal antibody for 4 minutes to saturate the biotin-hGFRα3-mmH surface. The sensor tips were then subsequently dipped into wells containing 25 μ/mL solution of a second anti-GFRα3 monoclonal antibody. The sensor tips were washed in Octet HBST buffer in between every step of the experiment. The real-time binding response was monitored during the course of the experiment and the binding response at the end of every step was recorded as shown in FIG. 9. The response of mAb-2 binding to biotin-hGFRα3-mmH pre-complexed with the first antibody was compared and competitive/non-competitive behavior of different anti-GFRα3 monoclonal antibodies was determined.
# [3] = target: T2, human GFRα3 expressed with a C-terminal …; assay: blocking ELISA 2, biotin-hGFRα3-mmH to coated hARTEMIN-mmH + hRET-10His
# In short: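 Plates coated with 1.2 ug/ml hARTEMIN-mmH plus 6.9 ug/ml hRET-10His; 1 nM biotin-hGFRα3-mmH pre-equilibrated 1 h at RT with antibody (0 to ~100 nM) before 1 h binding. Bound receptor detected by streptavidin-HRP/TMB at 450 nm; IC50 as antibody concentration halving signal.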
# [4] = target: T2, human GFRα3 expressed with a C-terminal …; assay: Octet cross-competition; biotin-hGFRα3-mmH pre-saturated with first antibody H4H2352S
# Description: as §1
# [5] = target: T2, human GFRα3 expressed with a C-terminal …; assay: Octet cross-competition; biotin-hGFRα3-mmH pre-saturated with first antibody H4H2350P
# Description: as §1
# [6] = target: T2, human GFRα3 expressed with a C-terminal …; assay: Octet RED384; 25 µg/mL first antibody on streptavidin-captured biotin-hGFRα3-mmH
# Description: as §1
# T2 sequence (O60609 other isoform, or with tags, fused parts or gaps limits assumed): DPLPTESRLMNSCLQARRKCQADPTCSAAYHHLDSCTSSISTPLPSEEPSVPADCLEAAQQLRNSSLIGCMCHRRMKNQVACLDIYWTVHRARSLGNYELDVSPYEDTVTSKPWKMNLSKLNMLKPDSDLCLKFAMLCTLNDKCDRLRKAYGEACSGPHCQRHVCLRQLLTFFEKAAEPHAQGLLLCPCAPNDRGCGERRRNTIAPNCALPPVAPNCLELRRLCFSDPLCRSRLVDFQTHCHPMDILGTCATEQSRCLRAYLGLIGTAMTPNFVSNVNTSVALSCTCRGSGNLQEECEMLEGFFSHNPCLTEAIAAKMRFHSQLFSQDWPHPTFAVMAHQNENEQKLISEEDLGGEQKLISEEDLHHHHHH
binder,measurement,setting,value
B1,"IC50 (SRE-luc, HEK293/hGFRα3/hRET cells, 100 pM hARTEMIN-mmH)",[1],0.92 nM
same,binding response of second antibody (nm),[2],0.34 nm
same,% max blocking,[3],100%
same,IC50,[3],0.761 nM
same,binding response of second antibody (nm),[4],0.1 nm
same,binding response of second antibody (nm),[5],2.06 nm
same,Amount of Antibody 1 bound (nm),[6],2.74 nm
